From patent publication US20170146518A1 (CENTRE NATIONAL DE LA RECHERCHE SCIENTIFIQUE CNRS, published 2017)
Non-standard residues stand in square brackets, D forms with d. No end group written: not given here. pGlu = O=C1CC[C@@H](C(=O)O)N1; Nle = CCCC[C@H](N)C(=O)O

What was measured:
[1] = target: T1, APJ (endogenous, in patient-derived GSCs) (human, UniProt P35414 1-380); test: radioactive binding assay in GSCs using GP130-siRNA and anti-GP130 antibodies
T1 construct: Endogenous receptor of patient-derived glioblastoma stem-like cells, tested on intact cells, in membrane preparations or in lysates; also called Apelin receptor; APLNR
T1 sequence: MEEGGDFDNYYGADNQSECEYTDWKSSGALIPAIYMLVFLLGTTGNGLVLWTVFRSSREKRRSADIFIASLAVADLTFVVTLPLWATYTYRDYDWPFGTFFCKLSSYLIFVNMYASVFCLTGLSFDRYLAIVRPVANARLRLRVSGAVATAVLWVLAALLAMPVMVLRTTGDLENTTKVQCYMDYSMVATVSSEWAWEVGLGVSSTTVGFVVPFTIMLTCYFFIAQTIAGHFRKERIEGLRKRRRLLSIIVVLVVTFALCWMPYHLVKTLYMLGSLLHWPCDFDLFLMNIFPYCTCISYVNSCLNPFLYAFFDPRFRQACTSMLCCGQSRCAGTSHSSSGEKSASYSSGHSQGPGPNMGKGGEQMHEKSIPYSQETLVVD
Description: Prior to binding experiments, 2×10⁶ GSCs were washed three times with DMEM/F12, and resuspended in binding buffer (DMEM/F12, 40 mM HEPES, 1% BSA). In order to determine the amount of nonspecific binding, 1 μM unlabeled [<Glu⁶⁵, Nle⁷⁵, Tyr⁷⁷]apelin-13 was added. Cells were pre-incubated with GP130 blocking antibody (2 μg/ml) when indicated. Cells were then incubated with 400 pM [¹²⁵I][<Glu⁶⁵,Nlc⁷⁵,Tyr⁷⁷]apelin-13 in agitation for 6 h at 4° C., and radioactivity was measured with a gamma counter (Beckman).

[2] = target: T2, HA-APJ (transfected in HEK-293T cells) (human, UniProt P35414 1-380); test: radioligand binding, membranes of HEK-293T transfected with APJ or with APJ and GP130
T2 construct: HA-APJ construct from Dr. L. Zheng (Chun et al., 2008); also called APJ-HA; APJ-expression plasmid; not shown: HA tag
T2 sequence: T1 sequence
Description: Homogenates were cleared by 5 min centrifugation at 3000 rpm. Then cells were resuspended in binding buffer ([…] Hepes, 5 mM MgCl2 and 1% BSA) and ultracentrifuged to obtain cell membranes. Membranes were then incubated with [125I][<Glu65,Nle75,Tyr77]apelin-13 (Perkin Elmer) in 100 μl of the binding buffer at room temperature for 90 min. In order to determine the amounts of nonspecific binding, unlabeled [<Glu65,Nle75,Tyr77] apelin-13 (Sigma) was simultaneously added After incubation, bound and free radioactivities were separated through rapid filtration using the glass-fiber filter units (GF/C, Packard Instrument Co.) of a cell harvester (Packard). Filter units were completely dried, and Microcinti O (Packard) was added to each well. The radioactivity of each well was counted with a TopCount liquid scintillation counter (Packard). The dissociation constant (Kd) and the number of binding sites (B max) were determined by the method of Scatchard.

binding result [1]: binds
binding result [2]: binds
Binder: [pGlu]RPRLSHKGP[Nle]PY (also: 125I label, place not given here) [[125I][<Glu65,Nle75,Tyr77]apelin-13]
